# B1: Guanyl-specific ribonuclease T1 wild type, P00651 (protein)
# chain: MMYSKLLTLTTLLLPTALALPSLVERACDYTCGSNCYSSSDVSTAQAAGYQLHEDGETVGSNSYPHKYNNYEGFDFSVSSPYYEWPILSSGDVYSGGSPGADRVVFNENNQLAGVITHTGASGNNFVECT
# Conditions: Aspergillus oryzae (strain ATCC 42149 / RIB 40), DSC, reversible: yes, whole UniProt chain shown; for Tm / heat capacity change of unfolding / unfolding enthalpy (calorimetric) / unfolding enthalpy (van 't Hoff): Thermal; for denaturant m value / denaturant midpoint (higher = more stable) / unfolding free energy: Urea, MOPS 30 mM
# [1] = pH 7, PIPES 30 mM, MgCl2 0.01 M
# [2] = pH 7, PIPES 30 mM, MgCl2 0.02 M
# [3] = pH 7, PIPES 30 mM, MgCl2 0.03 M
# [4] = pH 7, PIPES 30 mM, MgCl2 0.06 M
# [5] = pH 7, PIPES 30 mM, MgCl2 0.10 M
# [6] = pH 7, PIPES 30 mM, MgCl2 0.20 M
protein,measurement,setting,value
B1,Tm,"pH 2.2, glycine 30 mM",45.4 °C
same,heat capacity change of unfolding,"pH 2.2, glycine 30 mM",1.53 kcal/mol/K
same,unfolding enthalpy (calorimetric),"pH 2.2, glycine 30 mM",89.6 kcal/mol
same,unfolding enthalpy (van 't Hoff),"pH 2.2, glycine 30 mM",114 kcal/mol
same,Tm,"pH 2.8, glycine 30 mM",49 °C
same,heat capacity change of unfolding,"pH 2.8, glycine 30 mM",1.64 kcal/mol/K
same,unfolding enthalpy (calorimetric),"pH 2.8, glycine 30 mM",95.3 kcal/mol
same,unfolding enthalpy (van 't Hoff),"pH 2.8, glycine 30 mM",109 kcal/mol
same,Tm,"pH 4, acetate 30 mM",56.7 °C
same,heat capacity change of unfolding,"pH 4, acetate 30 mM",2.47 kcal/mol/K
same,unfolding enthalpy (calorimetric),"pH 4, acetate 30 mM",102 kcal/mol
same,unfolding enthalpy (van 't Hoff),"pH 4, acetate 30 mM",114 kcal/mol
same,Tm,"pH 5, acetate 30 mM",56.5 °C
same,heat capacity change of unfolding,"pH 5, acetate 30 mM",1.74 kcal/mol/K
same,unfolding enthalpy (calorimetric),"pH 5, acetate 30 mM",106 kcal/mol
same,unfolding enthalpy (van 't Hoff),"pH 5, acetate 30 mM",117 kcal/mol
same,denaturant m value,"pH 7, 14.9 °C",1.26 kcal/mol/M
same,denaturant midpoint (higher = more stable),"pH 7, 14.9 °C",5.65 M
same,unfolding free energy,"pH 7, 14.9 °C",6.84 kcal/mol
same,denaturant m value,"pH 7, 21.1 °C",1.1 kcal/mol/M
same,denaturant midpoint (higher = more stable),"pH 7, 21.1 °C",4.98 M
same,unfolding free energy,"pH 7, 21.1 °C",6.03 kcal/mol
same,denaturant m value,"pH 7, 23.05 °C",1.2 kcal/mol/M
same,denaturant midpoint (higher = more stable),"pH 7, 23.05 °C",4.86 M
same,unfolding free energy,"pH 7, 23.05 °C",5.89 kcal/mol
same,denaturant m value,"pH 7, 25 °C",1.2 kcal/mol/M
same,denaturant midpoint (higher = more stable),"pH 7, 25 °C",4.58 M
same,unfolding free energy,"pH 7, 25 °C",5.55 kcal/mol
same,denaturant m value,"pH 7, 27 °C",1.2 kcal/mol/M
same,denaturant midpoint (higher = more stable),"pH 7, 27 °C",4.14 M
same,unfolding free energy,"pH 7, 27 °C",5.01 kcal/mol
same,denaturant m value,"pH 7, 29 °C",1.27 kcal/mol/M
same,denaturant midpoint (higher = more stable),"pH 7, 29 °C",3.93 M
same,unfolding free energy,"pH 7, 29 °C",4.76 kcal/mol
same,denaturant m value,"pH 7, 34.75 °C",1.22 kcal/mol/M
same,denaturant midpoint (higher = more stable),"pH 7, 34.75 °C",2.92 M
same,unfolding free energy,"pH 7, 34.75 °C",3.54 kcal/mol
same,denaturant m value,"pH 7, 40.1 °C",1.28 kcal/mol/M
same,denaturant midpoint (higher = more stable),"pH 7, 40.1 °C",2.13 M
same,unfolding free energy,"pH 7, 40.1 °C",2.58 kcal/mol
same,Tm,"pH 7, PIPES 30 mM, MgCl2 0 M",48.9 °C
same,heat capacity change of unfolding,"pH 7, PIPES 30 mM, MgCl2 0 M",1.35 kcal/mol/K
same,unfolding enthalpy (calorimetric),"pH 7, PIPES 30 mM, MgCl2 0 M",95.5 kcal/mol
same,unfolding enthalpy (van 't Hoff),"pH 7, PIPES 30 mM, MgCl2 0 M",118 kcal/mol
same,Tm,[1],52.4 °C
same,heat capacity change of unfolding,[1],1.22 kcal/mol/K
same,unfolding enthalpy (calorimetric),[1],98.2 kcal/mol
same,unfolding enthalpy (van 't Hoff),[1],117 kcal/mol
same,Tm,[2],53.5 °C
same,heat capacity change of unfolding,[2],0.86 kcal/mol/K
same,unfolding enthalpy (calorimetric),[2],98.9 kcal/mol
same,unfolding enthalpy (van 't Hoff),[2],117 kcal/mol
same,Tm,[3],54 °C
same,heat capacity change of unfolding,[3],0.94 kcal/mol/K
same,unfolding enthalpy (calorimetric),[3],99.1 kcal/mol
same,unfolding enthalpy (van 't Hoff),[3],119 kcal/mol
same,Tm,[4],55.4 °C
same,heat capacity change of unfolding,[4],1.02 kcal/mol/K
same,unfolding enthalpy (calorimetric),[4],104 kcal/mol
same,unfolding enthalpy (van 't Hoff),[4],120 kcal/mol
same,Tm,[5],56.6 °C
same,heat capacity change of unfolding,[5],1.11 kcal/mol/K
same,unfolding enthalpy (calorimetric),[5],104 kcal/mol
same,unfolding enthalpy (van 't Hoff),[5],121 kcal/mol
same,Tm,[6],58.1 °C
same,heat capacity change of unfolding,[6],0.71 kcal/mol/K
same,unfolding enthalpy (calorimetric),[6],104 kcal/mol

# — FireProtDB (doi:10.1021/bi00135a019)
